Data reported in paper PMC8748766, “The catalytic activity of TCPTP is auto-regulated by its intrinsically disordered tail and activated by Integrin alpha-1” (Nature Communications, 2022).

Tests used:
[1] = target: T1, TCPTP (full-length TCPTP, residues 1-387, TC45 isoform) (human, UniProt P17706-2 1-387); experiment: cell-based or functional assay
T1 sequence (looked up): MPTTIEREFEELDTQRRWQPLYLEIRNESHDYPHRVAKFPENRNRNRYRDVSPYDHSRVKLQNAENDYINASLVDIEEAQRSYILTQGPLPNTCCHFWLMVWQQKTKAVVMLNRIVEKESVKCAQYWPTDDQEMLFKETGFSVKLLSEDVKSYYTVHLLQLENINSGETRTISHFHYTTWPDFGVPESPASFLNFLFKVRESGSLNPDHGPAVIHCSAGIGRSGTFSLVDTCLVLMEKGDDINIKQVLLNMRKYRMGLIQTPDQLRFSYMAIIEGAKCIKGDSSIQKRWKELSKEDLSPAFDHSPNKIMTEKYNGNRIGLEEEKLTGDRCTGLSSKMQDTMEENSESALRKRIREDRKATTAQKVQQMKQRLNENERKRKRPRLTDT

[2] = target: T2, TCPTPCAT (TCPTP catalytic domain, residues 1-302) (human, UniProt P17706-2 1-302); experiment: NMR titration; 15N-labelled tail observed (2D [1H,15N] HSQC, 0.1 mM), unlabelled TCPTPCAT added in increasing amounts (1:0 to 1:20 tail:CAT); NMR buffer 20 mM HEPES pH 6.8, 150 mM NaCl, 0.5 mM TCEP, 90% H2O/10% D2O; 298 K or 283 K; details: both partners purified
T2 construct: T cell protein tyrosine phosphatase (TCPTP, PTPN2), human, TC45 isoform, catalytic domain residues 1-302, sub-cloned into pRP1B for all NMR experiments; (2H,15N)-labelled where it was the observed species, unlabelled where it was titrated into the labelled tail; also called T-Cell Protein Tyrosine Phosphatase catalytic domain; PTPN2 catalytic domain; source: E. coli BL21 (DE3) RIL, purified …
T2 sequence (looked up): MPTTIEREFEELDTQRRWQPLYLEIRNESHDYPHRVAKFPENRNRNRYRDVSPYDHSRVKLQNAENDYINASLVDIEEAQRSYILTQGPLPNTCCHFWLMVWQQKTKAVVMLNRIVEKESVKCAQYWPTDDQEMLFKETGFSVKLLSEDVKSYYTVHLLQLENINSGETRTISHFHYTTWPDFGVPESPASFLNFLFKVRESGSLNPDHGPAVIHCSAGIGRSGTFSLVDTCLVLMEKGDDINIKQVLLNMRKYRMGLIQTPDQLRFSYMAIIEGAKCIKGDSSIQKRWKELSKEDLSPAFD

[3] = target: T3, TCPTPCAT (Homo sapiens, UniProt P17706); experiment: NMR titration (2D HSQC/TROSY) binding to TCPTPCAT
T3 construct: TCPTP and TCPTPCAT (residue 1–314) against 2 phosphotyrosine peptides derived from EGFR; His6 (N, cleaved yes); made in house; host or cells: E. coli BL21 (DE3) RIL
T3 sequence (P17706 1-314 isoform P17706-2): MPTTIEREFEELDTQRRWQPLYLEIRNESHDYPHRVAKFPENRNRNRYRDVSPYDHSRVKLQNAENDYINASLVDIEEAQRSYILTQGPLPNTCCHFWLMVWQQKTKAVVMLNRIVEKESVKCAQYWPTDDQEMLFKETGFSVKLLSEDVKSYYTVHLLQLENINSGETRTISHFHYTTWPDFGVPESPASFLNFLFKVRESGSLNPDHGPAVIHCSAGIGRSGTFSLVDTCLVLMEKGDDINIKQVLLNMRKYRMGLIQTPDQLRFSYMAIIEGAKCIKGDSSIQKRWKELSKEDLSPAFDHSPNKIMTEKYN
Text: Polymerase chain reaction (PCR) fragments of TCPTP (residues: 1–387) TCPTPCAT (catalytic domain, residues: 1–288, 1–302 or 1–314), TCPTPTail (C-terminal tail, residues: 289–387 or 303–387) were amplified from full-length human TCPTP (TC45 isoform). TCPTP, TCPTPCAT (residues: 1–288, 1–314), and TCPTPTail (residues: 289–387) fragments were cloned into pMCSG7 including a N-terminal His6-tag using ligation-independent cloning. For all NMR experiments, the PCR fragments of TCPTP, TCPTPCAT (residues: 1–302) and TCPTPTail (residue: 303–387) were sub-cloned into pRP1B as previously described.
NMR data were collected on either Bruker NEO 600 MHz or 800 MHz spectrometers equipped with TCI HCN z-gradient cryoprobes at 298 K or 283 K. NMR measurements of TCPTP’s variant construct were recorded using (^1H,^15N)-, (^2H,^15N)-, (^1H,^15N,^13C), or (^2H,^15N,^13C)-labeled protein at a final concentration of 0.6 mM for backbone assignment or 0.1 mM for titration in NMR buffer and 90% H2O/10% D2O. The sequence-specific backbone assignments of TCPTP (residues 1–387), TCPTPCAT (residues 1–302), TCPTPTail (residues 303–387) and other variants were achieved using 3D triple resonance experiments including […], 3D HNCA, 3D HN(CO)CA, 3D HN(CO)CACB, and 3D HNCACB either as HSQC or TROSY variations. All NMR data were processed using TopSpin 4.0.5[44] and analyzed using either CARA (http://www.cara.nmr.ch) and/or CcpNMR[45].

[4] = test system: pEGFR peptide-1, derived from the cytoplasmic tail of EGFR; experiment: Phosphatase kinetic analysis (Michaelis-Menten) of TCPTP constructs, pEGFR peptide-1 substrate; assay type: biochemical; details: mean ± SE, n = 9 (TCPTPCAT, TCPTP) or 12 (TCPTPC-term, TCPTPL1)
Protocol: (§1) The rate of dephosphorylation of TCPTP and TCPTPCAT (residue 1–314) against 2 phosphotyrosine peptides derived from EGFR was monitored either with or without ITGA1 peptide (ITGA1_FCT & ITGA1_TR) in assay buffer (25 mM Hepes pH 7.4, 50 mM NaCl and 1 mM DTT). Lyophilized powder of all synthetic peptides was dissolved in assay buffer without DTT (phosphopeptides, 5 mM; ITGA1 peptides, 2 mM). For the kinetic analysis, the concentration of the enzyme was fixed at 1 nM while the substrate (phosphopeptides) concentration was varied from 2.5 μM to 160 μM in a total reaction volume of 200 μl. Effect of ITGA1 peptide on TCPTP & TCPTPCAT kinetics were assessed in saturated condition by adding an excess amount of ITGA1 peptide to the reaction mixture (ITGA1_TR = 1 μM; ITGA1_FCT = 25 μM). The reaction was incubated at 30 °C for 30 min and stopped by the addition of 30 μl phosphate reagent (phosphate colorimetric assay kit; Bio Vision) following the manufacturer’s instructions. Data were normalized and fitted using a nonlinear curve, and kinetics parameters (KM and kcat) were calculated from the Michaelis-Menten equation using Graph Pad Prism 9.0. All data points in the enzyme kinetics experiment were measured in triplicate, and the experiments were repeated three times.

[5] = test system: pEGFR peptide-2, derived from the EGFR's kinase domain activation loop; experiment: Phosphatase kinetic analysis (Michaelis-Menten) of TCPTP constructs, pEGFR peptide-2 substrate; assay type: biochemical; details: mean ± SE, n = 9
Protocol: as §1
Supplementary Table 2: Enzymatic activity assay (Michaelis-Menten analysis); substrate pEGFR peptide-2, derived from the EGFR’s kinase domain activation loop. Calculated kinetic parameter are presented as the mean of nine independent reactions (n=9; mean ± SE). Source data are provided as a Source Data file. kcat (s-1) Km (µM) kcat/Km (µM -1s-1)

[6] = DiFMUP assay of TCPTP, TCPTPCAT, PTP1B and PTP1BCAT; assay type: biochemical; details: PTP1B (1–400) vs PTP1BCAT (1–321), DiFMUP, n = 6
Protocol: Activity of TCPTP, TCPTPCAT (residue 1–314) either with or without ITGA1 peptides (ITGA1_TR; 1:50 molar ratio, ITGA1_FCT; 1:1000 molar ratio), PTP1B (residue 1–400) and PTP1BCAT (residue 1–321) were assessed in assay buffer (25 mM Hepes pH 7.4, 50 mM NaCl, and 1 mM DTT). The assay was performed in black polystyrene flat bottom 96-well plate. The concentration of DiFMUP was fixed at 10 μM and protein concentration at 2.5 nM in total reaction volume of 100 μl. The emitted fluorescent signal at 455 nm was continuously recorded for 25 min using a Tecan Infinite M1000 pro microplate reader (Tecan i-control, 2.0.10.0).

[7] = pEGFR peptide-2 2.5-160 μM, 1 nM enzyme, pH 7.4, 30 °C 30 min

Question: For RPLKKKMEKRPLKKKMEK [ITGA1_TR (ITGA1 tandem repeat; 2x ITGA1_TCT)], which “rate of dephosphorylation (EGFR phosphopeptides, DiFMUP) by TCPTP saturated with excess ITGA1 peptide (ITGA1_TR 1 μM), against TCPTP alone” value [1] is on record?
Answer: ~3 fold

B1: TCPTP_(Tail) (C-terminal tail, residues 303-387) (domain or fragment, human, UniProt P17706-2 303-387, looked up)
chain: HSPNKIMTEKYNGNRIGLEEEKLTGDRCTGLSSKMQDTMEENSESALRKRIREDRKATTAQKVQQMKQRLNENERKRKRPRLTDT
notes: T cell protein tyrosine phosphatase (TCPTP, PTPN2), human, TC45 isoform, C-terminal tail residues 303-387, sub-cloned into pRP1B for all NMR experiments; also called TCPTP C-terminal tail; TCPTP IDR; source: E. coli BL21 (DE3) RIL, purified (His-trap, TEV cleavage, subtraction, heat step 80 °C 10 min, SEC)
Question: Does B1 bind [2]?
Answer: binds

B2: TCPTP_(TailRK) (N373R/E374K/N375R/E376K) (domain or fragment, human, UniProt P17706-2 303-387, looked up)
chain: HSPNKIMTEKYNGNRIGLEEEKLTGDRCTGLSSKMQDTMEENSESALRKRIREDRKATTAQKVQQMKQRLRKRKRKRKRPRLTDT
notes: T cell protein tyrosine phosphatase (TCPTP, PTPN2), human, TC45 isoform, C-terminal tail with 373NENE376 changed to 373RKRK376; 15N-labelled when observed; also called TCPTP_(TaiRK); source: E. coli BL21 (DE3) RIL, purified (His-trap, TEV cleavage, subtraction, heat step 80 °C 10 min, SEC)
Question: Does B2 bind [2]?
Answer: binds

B3: TCPTPTailRK: TCPTPTail with N373R/E374K/N375R/E376K (protein)
chain: HSPNKIMTEKYNGNRIGLEEEKLTGDRCTGLSSKMQDTMEENSESALRKRIREDRKATTAQKVQQMKQRLRKRKRKRKRPRLTDT
modifications: left off: His6, end not stated, cleaved
notes: TCPTPTail with N373R/E374K/N375R/E376K
Question: For B3, which “NMR titration: interaction strength vs TCPTPTail” value ([3]; 2D [1H,15N] HSQC, reduction in peak intensities at lower ratio (1:10)) is on record?
Answer: tighter interaction

Question: What about the “NMR titration: CSPs in (2H,15N)-labeled TCPTPCAT” value ([3]; 2D [1H,15N] TROSY, unlabeled ligand added) of the same molecule?
Answer: Small, but clear chemical shift perturbations (CSPs) were readily identified

Question: Which “rate of dephosphorylation (EGFR phosphopeptides, DiFMUP) by TCPTP saturated with excess ITGA1 peptide (ITGA1_FCT 25 μM), against TCPTP alone” value [1] does the source give for KIGFFKRPLKKKMEK [ITGA1_FCT (ITGA1 full cytoplasmic tail)] here?
Answer: ~3 fold

B4: TCPTPCAT: TCPTP catalytic domain, residues 1–288, 1–302 (NMR) or 1–314 (activity, SAXS) (protein, UniProt P17706 1-314, looked up, fragment)
chain: MPTTIEREFEELDTQRRWQPLYLEIRNESHDYPHRVAKFPENRNRNRYRDVSPYDHSRVKLQNAENDYINASLVDIEEAQRSYILTQGPLPNTCCHFWLMVWQQKTKAVVMLNRIVEKESVKCAQYWPTDDQEMLFKETGFSVKLLSEDVKSYYTVHLLQLENINSGETRTISHFHYTTWPDFGVPESPASFLNFLFKVRESGSLNPDHGPAVIHCSAGIGRSGTFSLVDTCLVLMEKGDDINIKQVLLNMRKYRMGLIQTPDQLRFSYMAIIEGAKCIKGDSSIQKRWKELSKEDLSPAFDHSPNKIMTEKYN
modifications: catalytic domain
Question: What does the source list for B4?
Answer: kcat ([4]; pEGFR peptide-1 2.5-160 μM, 1 nM enzyme, 25 mM Hepes pH 7.4, 50 mM NaCl, 1 mM DTT, 30 °C 30 min): 34.0 ± 0.9 s⁻¹; Km ([4]; pEGFR peptide-1 2.5-160 μM, 1 nM enzyme, pH 7.4, 30 °C 30 min): 24.8 ± 2 µM; kcat/Km ([4]; pEGFR peptide-1, pH 7.4, 30 °C): 1.4e+06 ± 100000 M⁻¹ s⁻¹; Km [5, 7]: 34 ± 2.2 µM; kcat [5, 7]: 36.3 ± 0.9 s⁻¹; kcat/Km ([5]; pEGFR peptide-2): 1.1 ± 0.1 µM -1s-1

B5: PTP1B: PTP1B (residue 1–400) (protein, UniProt P18031 1-400, looked up, fragment)
chain: MEMEKEFEQIDKSGSWAAIYQDIRHEASDFPCRVAKLPKNKNRNRYRDVSPFDHSRIKLHQEDNDYINASLIKMEEAQRSYILTQGPLPNTCGHFWEMVWEQKSRGVVMLNRVMEKGSLKCAQYWPQKEEKEMIFEDTNLKLTLISEDIKSYYTVRQLELENLTTQETREILHFHYTTWPDFGVPESPASFLNFLFKVRESGSLSPEHGPVVVHCSAGIGRSGTFCLADTCLLLMDKRKDPSSVDIKKVLLEMRKFRMGLIQTADQLRFSYLAVIEGAKFIMGDSSVQDQWKELSHEDLEPPPEHIPPPPRPPKRILEPHNGKCREFFPNHQWVKEETQEDKDCPIKEEKGSPLNAAPYGIESMSQDTEVRSRVVGGSLRGAQAASPAKGEPSLPEKDED
Question: For B5, which “autoregulatory behavior of the C-terminal tail (activity vs catalytic domain)” value [6] is on record?
Answer: not observed
